B1: Synaptogenesis protein syg-2 (Caenorhabditis elegans), Q9U3P2 (parent)
chain: MLSQAILLWLFGSIHISSQFFLESPSNLSTIAGESITFRCSAEKSPEPIVYSQWKSNTGSLLGYHQEGILPGHQGRFSYIKQNAEELHLKITHVNLDDDGEYECQMLHPEEGPIRAKSFLNIIVPPQLVYFSNYQPNSIIAVKENTPLNITCVVPNVKPEPEVLWYMDGKVMSRDVKQASTPHLNKTFTVYTSLVVQSDRNDHGKVITCEAFQKETDIRITTNTTLDVLFPPSDPTVEILRNPSALRSGDNVTIACSVTGGNPPPDVFWYHENKRLQSHSTLDTRSKEIKNIYSFIASQNDNMAEYECRANNSRTGNPKRKAMKLEVNYPPASVELFGESNIRYGSSANIQCKSLPSNPASQITWIINGRSVPTPTQREFVVENGIVSSSNVSVHSNELSVEAHQINVECMATNPEGSSAKQHVIKIIAPPKAPIITGLEDRKFFEGDIVNVTCEAQGGNPLAELSWYRGSEKHLVKGRKKMKWSQVKKKLVMSLLCLCEVVIMNFFRFSKNVFYFFRFTLFIECGVNGAHNEVAGFSSYSTLALRVDRTMNTQRLKCEATNAALDEPLIESQYLSVYYPPRRVLIRPADSGDQRLLVGKSARLVCGTLSSNPAAHISWQFSRATDDNKVHLGDVSLNETTRDNGFNVENVLSFTPTEEYDGTVVHCIANHPEWKHSVNTSFPLNVMYPPKMLVNDPVTVVMSEGDSFKENLTVRGNPAISLWQWRKNGVPFDHTIGRVFARGAVLSGKQLLSTDAGVYTLTATNSVGSTNITIKLAVEYSARITSISTPVIAATGDTVLLECEADGEPSKANMIHWYKNGEILAAQHRGHKKAILRLNATEQQSGEYTCKADNGIGVPAEGQTFLLVNSAPRVLPVARYAKTAGILGGVAKARCKVYAVPTVEFVWEKDEQLIKKNSSKYSIVNTQIDYSTYESTLWIKNIVPDDYTKKVKCIARNSFGTDHLSIPIIPPTHPDEPFNLTMTNSTLNTISVAWEPRFDGGSDQIFEVKYRRQNDDLIHLVNTTHTNLRLSGLATANTYFFQIRSINARGFASSWTSPVIFATLNEDGVNVAMIRNEKLKLTTWIPYILIFIVLFMLLNVVICCFVCNRTKKRKLREKTEMARTAINGGDVRQVQMYGTMMGNDGMSRRDIDDRPEMSEDEHSVRTMIEVSPNGYMQPIEPMLYESTGLLEYDYQTRSYMGSSQGTRSMTYANVPYPEPPQPSYHSNWNSLQRQSNNNTSPQHHLSTFINPNMGVRAGPINYAQLDGDLV
partner: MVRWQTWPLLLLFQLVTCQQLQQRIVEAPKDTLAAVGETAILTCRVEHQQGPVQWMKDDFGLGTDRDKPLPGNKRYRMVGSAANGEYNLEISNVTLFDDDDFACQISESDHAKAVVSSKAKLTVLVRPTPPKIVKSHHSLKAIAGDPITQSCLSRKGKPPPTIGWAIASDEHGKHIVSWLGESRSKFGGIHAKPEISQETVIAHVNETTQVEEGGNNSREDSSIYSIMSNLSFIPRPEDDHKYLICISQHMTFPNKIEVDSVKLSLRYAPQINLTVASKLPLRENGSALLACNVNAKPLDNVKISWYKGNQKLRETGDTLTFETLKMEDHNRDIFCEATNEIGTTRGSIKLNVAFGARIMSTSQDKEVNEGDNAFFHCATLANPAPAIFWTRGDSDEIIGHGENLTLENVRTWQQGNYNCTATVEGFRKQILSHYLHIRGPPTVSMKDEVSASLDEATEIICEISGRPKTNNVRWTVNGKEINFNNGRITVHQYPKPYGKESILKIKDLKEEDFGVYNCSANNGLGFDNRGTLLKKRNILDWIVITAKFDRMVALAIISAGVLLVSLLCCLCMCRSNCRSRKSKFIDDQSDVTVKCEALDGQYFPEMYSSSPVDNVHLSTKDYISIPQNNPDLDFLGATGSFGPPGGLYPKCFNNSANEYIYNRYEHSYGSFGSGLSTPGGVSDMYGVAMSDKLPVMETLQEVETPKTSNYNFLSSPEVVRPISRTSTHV
B2: Synaptogenesis protein syg-1 (Caenorhabditis elegans), B1Q236 (parent)
chain: B1 partner
partner: B1 chain

Variants of: B1
Conditions: with syg1_caeel syg-1, B1Q236

effect of a mutation on the interaction | Variant
decreasing interaction strength | Q53A
disrupting interaction strength | Q105A
decreasing interaction strength | L61A
decreasing interaction strength | R115A

Variants of: B2
Conditions: with syg2_caeel syg-2, Q9U3P2

effect of a mutation on the interaction | Variant
disrupting interaction strength | Q54A;F60A
disrupting interaction strength | F60A
decreasing interaction strength | Q54A
decreasing interaction strength | Q105A
disrupting interaction strength | Q54A;M56A;F60A;S107A

From IntAct's records for PubMed 24485456
